Values quoted from earlier work in paper PMC3894449.

Assays:
[1] = target: IL-2Ralpha (Homo sapiens) (UniProt P01589)
[2] = target: IL-15Ralpha (Homo sapiens) (UniProt Q13261)
Chain of UniProt Q13261 (Q13261 31-205): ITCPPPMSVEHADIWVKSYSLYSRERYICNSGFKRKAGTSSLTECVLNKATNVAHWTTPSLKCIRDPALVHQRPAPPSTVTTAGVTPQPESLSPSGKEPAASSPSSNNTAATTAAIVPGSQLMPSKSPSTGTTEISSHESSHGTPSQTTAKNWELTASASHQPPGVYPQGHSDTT

Chain of UniProt P01589 (P01589 22-240): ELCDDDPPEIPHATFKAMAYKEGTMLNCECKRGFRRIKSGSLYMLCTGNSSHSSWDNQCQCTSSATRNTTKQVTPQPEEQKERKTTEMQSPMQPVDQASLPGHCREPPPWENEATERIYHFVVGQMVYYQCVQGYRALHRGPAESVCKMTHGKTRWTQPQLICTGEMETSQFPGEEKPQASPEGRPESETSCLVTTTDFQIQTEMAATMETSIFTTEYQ

Kd [1] [nM] | Kd [2] [nM] | Substance
20 | – | IL-2 (from UniProt P60568)
– | 0.05 | IL-15 (from UniProt P40933)
